B1: monobiotinylated recombinant fibronectin fragment FNIII7-10 (ligand)
chain: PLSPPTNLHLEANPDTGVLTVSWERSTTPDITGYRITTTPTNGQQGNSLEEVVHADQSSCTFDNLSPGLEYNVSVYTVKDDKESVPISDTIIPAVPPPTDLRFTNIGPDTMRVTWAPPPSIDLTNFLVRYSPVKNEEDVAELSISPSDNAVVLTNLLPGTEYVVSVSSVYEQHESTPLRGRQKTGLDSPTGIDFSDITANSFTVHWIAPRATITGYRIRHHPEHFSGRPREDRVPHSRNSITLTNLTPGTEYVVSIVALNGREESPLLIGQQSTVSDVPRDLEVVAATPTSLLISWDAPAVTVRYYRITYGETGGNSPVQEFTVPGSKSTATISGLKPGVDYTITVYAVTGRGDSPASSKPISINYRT
modifications: single biotin on the N-terminal biotin tagging sequence (monobiotinylated)
B2: RGD peptide (GRGDSPC) (peptide)
peptide: GRGDSPC
B3: RGD-PHSRN peptide (GRGDG13PHSRN) (peptide)
peptide: GRGDGGGGGGGGGGGGGPHSRN
notes: Synthetic; tethered to SAMs

Experiments:
[1] = target: T1, α5β1 integrin on MC3T3-E1 murine osteoblast-like cells (mouse, UniProt P11688 45-1053; P09055 21-798); assay: cell-based or functional assay
[2] = target: αvβ3 integrin on MC3T3-E1 murine osteoblast-like cells (mouse, UniProt P43406 31-1044; O54890 26-787); assay: cell-based or functional assay
[3] = target: T1, α5β1 integrin on MC3T3-E1 murine …; assay: antibody blocking of adhesion, MC3T3-E1 cells on tethered ligand
Experimental: MC3T3-E1 cells were labeled with 4 mM calcein-AM, a membrane-permeable green fluorescent dye, in 2 mM dextrose-DPBS for 30 min and resuspended in α-MEM with 10% FBS. Cells were seeded onto the surfaces at 200 cells/mm², and allowed to attach for 1 h at 37° C. For blocking antibody experiments, cells were incubated in the presence of function-perturbing antibodies (10 μg/ml) for 10 min with gentle agitation prior to cell seeding. […] Wells were then filled completely with dextrose-PBS, sealed, inverted, and centrifuged for 5 min at a prescribed speed on a Beckman Allegra 6 centrifuge (GH 3.8 rotor) to apply normal detachment forces. Media was then gently aspirated from the wells, and wells were refilled for post-spin image collection. Post/pre-spin cell ratios were determined by image analysis, and this adhesive fraction was plotted against ligand surface density to obtain cell adhesion profiles.
Function-perturbing antibodies directed against different integrin subunits were used to block adhesion to the engineered interfaces. Since integrins α₅β₁ and αᵥβ₃ represent the dominant adhesion receptors for FN in MC3T3-E1 cells, the contributions of these receptors to adhesion strength on the peptide-functionalized SAMs was examined. Surfaces were tethered with maximum density of ligand, and the relative cell adhesion was normalized to unblocked controls.

T1 sequence (P11688 45-1053, chain 1 of 2): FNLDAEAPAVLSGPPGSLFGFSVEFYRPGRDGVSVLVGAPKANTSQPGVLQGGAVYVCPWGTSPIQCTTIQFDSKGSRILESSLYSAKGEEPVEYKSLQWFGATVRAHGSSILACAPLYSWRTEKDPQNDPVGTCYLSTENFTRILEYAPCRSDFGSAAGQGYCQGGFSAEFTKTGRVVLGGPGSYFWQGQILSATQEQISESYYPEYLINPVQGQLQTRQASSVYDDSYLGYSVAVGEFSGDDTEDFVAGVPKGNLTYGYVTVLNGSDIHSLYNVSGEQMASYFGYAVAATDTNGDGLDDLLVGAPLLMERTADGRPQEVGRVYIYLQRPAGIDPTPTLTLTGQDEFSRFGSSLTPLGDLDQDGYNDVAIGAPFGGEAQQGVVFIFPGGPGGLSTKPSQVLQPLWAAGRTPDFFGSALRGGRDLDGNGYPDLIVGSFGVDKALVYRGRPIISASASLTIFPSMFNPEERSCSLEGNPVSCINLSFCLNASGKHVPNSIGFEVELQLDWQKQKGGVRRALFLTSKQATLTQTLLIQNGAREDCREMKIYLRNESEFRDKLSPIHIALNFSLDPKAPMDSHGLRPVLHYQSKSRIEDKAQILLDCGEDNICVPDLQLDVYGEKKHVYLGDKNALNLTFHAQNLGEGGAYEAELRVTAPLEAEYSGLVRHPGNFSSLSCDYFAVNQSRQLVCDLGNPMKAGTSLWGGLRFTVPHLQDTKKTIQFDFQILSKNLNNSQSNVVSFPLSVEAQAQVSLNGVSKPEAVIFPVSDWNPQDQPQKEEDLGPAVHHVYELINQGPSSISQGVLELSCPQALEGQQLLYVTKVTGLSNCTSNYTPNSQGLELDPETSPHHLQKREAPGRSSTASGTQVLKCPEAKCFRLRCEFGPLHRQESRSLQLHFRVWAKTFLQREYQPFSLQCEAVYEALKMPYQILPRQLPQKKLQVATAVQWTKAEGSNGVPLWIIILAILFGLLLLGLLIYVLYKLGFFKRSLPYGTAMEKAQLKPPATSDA
T1 sequence (P09055 21-798, chain 2 of 2): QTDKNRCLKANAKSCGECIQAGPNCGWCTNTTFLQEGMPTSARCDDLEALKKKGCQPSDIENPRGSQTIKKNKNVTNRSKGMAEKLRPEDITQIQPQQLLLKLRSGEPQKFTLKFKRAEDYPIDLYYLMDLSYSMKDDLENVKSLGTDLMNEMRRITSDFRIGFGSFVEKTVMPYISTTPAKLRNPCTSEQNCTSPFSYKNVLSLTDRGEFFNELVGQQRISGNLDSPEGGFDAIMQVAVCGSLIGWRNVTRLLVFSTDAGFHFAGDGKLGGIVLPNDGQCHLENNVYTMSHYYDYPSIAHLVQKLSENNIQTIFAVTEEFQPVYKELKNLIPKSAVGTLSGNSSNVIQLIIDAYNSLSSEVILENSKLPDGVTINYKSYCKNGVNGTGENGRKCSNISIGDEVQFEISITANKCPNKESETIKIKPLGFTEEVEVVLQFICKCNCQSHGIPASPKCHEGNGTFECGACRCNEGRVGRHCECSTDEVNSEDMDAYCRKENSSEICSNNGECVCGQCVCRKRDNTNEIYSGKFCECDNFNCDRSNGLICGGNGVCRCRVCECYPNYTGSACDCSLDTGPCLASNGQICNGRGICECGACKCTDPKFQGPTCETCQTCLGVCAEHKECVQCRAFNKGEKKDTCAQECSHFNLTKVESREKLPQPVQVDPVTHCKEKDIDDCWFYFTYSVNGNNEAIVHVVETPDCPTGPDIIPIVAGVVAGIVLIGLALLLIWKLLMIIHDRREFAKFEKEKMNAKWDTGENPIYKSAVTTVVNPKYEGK
Chain of αvβ3 integrin on MC3T3-E1 murine osteoblast-like cells (P43406 31-1044, chain 1 of 2): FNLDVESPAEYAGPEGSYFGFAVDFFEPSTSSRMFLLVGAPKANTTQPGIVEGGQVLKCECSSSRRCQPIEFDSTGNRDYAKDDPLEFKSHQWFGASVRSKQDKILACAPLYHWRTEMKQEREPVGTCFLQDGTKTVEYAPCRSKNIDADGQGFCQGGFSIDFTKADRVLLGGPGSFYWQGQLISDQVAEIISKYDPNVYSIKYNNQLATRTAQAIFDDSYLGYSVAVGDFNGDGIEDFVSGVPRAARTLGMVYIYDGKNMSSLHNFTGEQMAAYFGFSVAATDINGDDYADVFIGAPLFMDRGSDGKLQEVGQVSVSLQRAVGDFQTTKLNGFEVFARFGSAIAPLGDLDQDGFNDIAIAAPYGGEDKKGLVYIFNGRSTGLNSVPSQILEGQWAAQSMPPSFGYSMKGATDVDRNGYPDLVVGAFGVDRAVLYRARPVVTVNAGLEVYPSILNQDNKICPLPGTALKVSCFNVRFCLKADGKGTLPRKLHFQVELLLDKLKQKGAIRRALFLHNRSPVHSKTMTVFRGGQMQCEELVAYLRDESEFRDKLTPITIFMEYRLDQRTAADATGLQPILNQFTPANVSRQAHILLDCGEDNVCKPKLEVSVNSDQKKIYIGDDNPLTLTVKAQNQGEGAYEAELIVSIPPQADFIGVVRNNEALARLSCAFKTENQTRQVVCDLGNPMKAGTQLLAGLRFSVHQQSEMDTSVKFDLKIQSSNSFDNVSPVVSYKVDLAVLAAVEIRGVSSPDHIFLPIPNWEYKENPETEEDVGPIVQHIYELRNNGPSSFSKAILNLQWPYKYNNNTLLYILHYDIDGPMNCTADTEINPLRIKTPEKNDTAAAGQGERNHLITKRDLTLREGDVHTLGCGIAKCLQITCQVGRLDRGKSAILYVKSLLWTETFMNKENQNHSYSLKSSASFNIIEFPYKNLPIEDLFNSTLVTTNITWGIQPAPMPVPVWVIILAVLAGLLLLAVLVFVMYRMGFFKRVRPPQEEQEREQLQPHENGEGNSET
Chain of αvβ3 integrin on MC3T3-E1 murine osteoblast-like cells (O54890 26-787, chain 2 of 2): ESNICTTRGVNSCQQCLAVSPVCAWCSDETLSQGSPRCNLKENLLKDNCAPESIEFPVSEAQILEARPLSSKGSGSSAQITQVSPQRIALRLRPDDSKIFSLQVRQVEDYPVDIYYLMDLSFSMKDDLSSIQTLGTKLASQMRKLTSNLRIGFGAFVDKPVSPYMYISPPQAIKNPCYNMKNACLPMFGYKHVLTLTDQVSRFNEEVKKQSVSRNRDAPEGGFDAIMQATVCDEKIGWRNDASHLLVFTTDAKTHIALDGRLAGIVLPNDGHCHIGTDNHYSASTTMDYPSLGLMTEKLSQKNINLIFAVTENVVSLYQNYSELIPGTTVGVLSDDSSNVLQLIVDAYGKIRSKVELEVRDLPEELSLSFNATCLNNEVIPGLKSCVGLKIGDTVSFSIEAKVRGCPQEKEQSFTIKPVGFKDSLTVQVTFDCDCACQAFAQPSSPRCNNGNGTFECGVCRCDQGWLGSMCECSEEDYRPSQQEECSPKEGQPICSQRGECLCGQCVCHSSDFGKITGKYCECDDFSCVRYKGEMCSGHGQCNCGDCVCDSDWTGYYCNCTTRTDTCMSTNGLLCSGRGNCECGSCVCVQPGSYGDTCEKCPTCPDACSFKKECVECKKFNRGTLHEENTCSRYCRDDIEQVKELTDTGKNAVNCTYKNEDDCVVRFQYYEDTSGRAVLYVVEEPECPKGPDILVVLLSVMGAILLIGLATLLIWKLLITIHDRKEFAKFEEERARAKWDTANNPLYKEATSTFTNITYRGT

| Binder | ADH50 (ligand density required for half-maximal adhesion of MC3T3-E1 cells) [1] [fmol/cm^2] | FAK tyrosine-397 phosphorylation, FNIII7-10 surface against RGD-tethered surface [1] [fold] | cell proliferation rate (BrdU incorporation), FNIII7-10 surface against RGD-tethered surface [1] [fold] | ADH50 (ligand density required for half-maximal adhesion of MC3T3-E1 cells) [2] [fmol/cm^2] | binding result [3] |
| --- | --- | --- | --- | --- | --- |
| B1 | 70 | ~3 | 2 | – | – |
| B2 | – | – | – | 2300 | – |
| B3 | – | – | – | 1950 | no binding |

Source: patent US20120142597A1 (GEORGIA TECH RESEARCH, published 2012)
